Assays:
[1] = molecular target: M2(4) (derivative of M2 containing the C-terminal linker of DEBS module 4; plasmid pST179) (UniProt Q03133); assay: fit of the rate of tetraketide formation against (5)M3+TE concentration (0.5-5 µM) at fixed 0.5 µM M2(4); kinetic saturation curve
[2] = molecular target: M2 (module 2 of DEBS with the natural C-terminal linker for module 2; plasmid pBP19) (UniProt Q03133); assay: fit of the rate of tetraketide formation against M3+TE concentration (0.4-4 µM) at fixed 1.0 µM M2; kinetic saturation curve
[3] = molecular target: (5)M5+TE (M5+TE; plasmid pRSG46) (UniProt Q03133); assay: cell-based or functional assay

Substance: (5)M3+TE (derivative of M3+TE where the natural N-terminal linker has been replaced with the N-terminal linker of module 5 of DEBS; plasmid pST132) (from UniProt Q03133 2-41; Q03132 33-1467; Q03133 2960-3166) (enzyme)
- Kd [1]: 2100 nM

Substance: M3+TE (module 3 of DEBS with its own N-terminal linker and with the thioesterase fused to the C-terminus; plasmid pRSG34) (from UniProt Q03132 33-1467; Q03133 2960-3166) (enzyme)
- Kd [2]: 1100 nM

Substance: acyl-ACP4(4) adduct 4a ((2S,3R)-diketide on ACP4(4)) (from UniProt Q03132 3398-3567)
- maximal rate increase in the elongation of 4a versus 2a [3]: > 40 fold
